Patent US20250333467A1 (TECTONIC OPERATING, published 2025)

T1: human RXFP1 (human, UniProt Q9HBX9 1-757)
T1 sequence (looked up): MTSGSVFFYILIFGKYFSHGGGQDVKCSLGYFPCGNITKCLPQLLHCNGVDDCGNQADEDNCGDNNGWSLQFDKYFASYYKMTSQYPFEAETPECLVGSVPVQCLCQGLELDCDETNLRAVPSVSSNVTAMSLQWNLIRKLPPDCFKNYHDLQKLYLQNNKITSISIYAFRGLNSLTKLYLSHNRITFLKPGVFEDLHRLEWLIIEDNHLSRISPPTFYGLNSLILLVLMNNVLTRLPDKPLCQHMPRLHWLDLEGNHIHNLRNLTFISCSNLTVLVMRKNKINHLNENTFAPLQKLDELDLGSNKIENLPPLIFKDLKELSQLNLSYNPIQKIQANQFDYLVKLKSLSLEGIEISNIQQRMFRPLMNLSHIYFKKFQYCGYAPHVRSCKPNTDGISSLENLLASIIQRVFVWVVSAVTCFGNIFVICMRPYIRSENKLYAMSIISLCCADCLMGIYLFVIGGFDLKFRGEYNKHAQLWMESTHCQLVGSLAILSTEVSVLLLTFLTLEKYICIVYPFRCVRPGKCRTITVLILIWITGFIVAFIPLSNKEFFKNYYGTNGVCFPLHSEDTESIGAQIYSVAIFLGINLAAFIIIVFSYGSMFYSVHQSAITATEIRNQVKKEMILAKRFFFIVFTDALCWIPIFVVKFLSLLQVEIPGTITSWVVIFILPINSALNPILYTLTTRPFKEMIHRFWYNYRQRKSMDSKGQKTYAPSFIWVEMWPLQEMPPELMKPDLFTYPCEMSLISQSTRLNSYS


Target: T1, human RXFP1
Experiment: cell-based or functional assay

Binder | Potency (cAMP, transient hRXFP1 in HEK293)
SEQ ID NO: 369 (Fc fusion) DKTHTCPPCPAPEAAGGPSVFLFPPKPKDTLMISRTPEVTCVVVDVSHEDPEVKFNWYVDGVEVHNAKTKPREEQYNSTYRVVSVLTVLHQDWLNGKEYKCKVSNKALAAPIEKTISKAKGQPREPQVYTLPPSRDELTKNQVSLTCLVKGFYPSDIAVEWESNGQPENNYKTTPPVLDSDGSFFLYSKLTVDKSRWQQGNVFSCSVLHEALHSHYTQKSLSLSPGKGGSDSWKEEVIKLCGRELVRAQIAICGKSTASDAAGANANAGARQLYSALANKCCHVGCTKRSLAQFC | 0.5 nM
SEQ ID NO: 370 (Fc fusion) DKTHTCPPCPAPEAAGGPSVFLFPPKPKDTLMISRTPEVTCVVVDVSHEDPEVKFNWYVDGVEVHNAKTKPREEQYNSTYRVVSVLTVLHQDWLNGKEYKCKVSNKALAAPIEKTISKAKGQPREPQVYTLPPSRDELTKNQVSLTCLVKGFYPSDIAVEWESNGQPENNYKTTPPVLDSDGSFFLYSKLTVDKSRWQQGNVFSCSVLHEALHSHYTQKSLSLSPGKGGSDSWKEEVIKLCGRELVRAQIAICGKSTASDAAGANANAGARQLYSALANKCCHVGCTKRSLAEFC | 1.8 nM
SEQ ID NO: 361 (Fc fusion) DKTHTCPPCPAPEAAGGPSVFLFPPKPKDTLMISRTPEVTCVVVDVSHEDPEVKFNWYVDGVEVHNAKTKPREEQYNSTYRVVSVLTVLHQDWLNGKEYKCKVSNKALAAPIEKTISKAKGQPREPQVYTLPPSRDELTKNQVSLTCLVKGFYPSDIAVEWESNGQPENNYKTTPPVLDSDGSFFLYSKLTVDKSRWQQGNVFSCSVLHEALHSHYTQKSLSLSPGKGGSDSWKEEVIKLCGRELVRAQIAICGKSTGGGEGGGEGGGEGRQLYSALANKCCHVGCTKRSLARFC | 2.5 nM
SEQ ID NO: 366 (Fc fusion) DKTHTCPPCPAPEAAGGPSVFLFPPKPKDTLMISRTPEVTCVVVDVSHEDPEVKFNWYVDGVEVHNAKTKPREEQYNSTYRVVSVLTVLHQDWLNGKEYKCKVSNKALAAPIEKTISKAKGQPREPQVYTLPPSRDELTKNQVSLTCLVKGFYPSDIAVEWESNGQPENNYKTTPPVLDSDGSFFLYSKLTVDKSRWQQGNVFSCSVLHEALHSHYTQKSLSLSPGKGGSDSWQEEVIKLCGRELVRAQIAICGKSTGGEGGGEEGGGEGGQLYSALANKCCHVGCTKRSLARFC | 62.8 nM
SEQ ID NO: 365 (Fc fusion) DKTHTCPPCPAPEAAGGPSVFLFPPKPKDTLMISRTPEVTCVVVDVSHEDPEVKFNWYVDGVEVHNAKTKPREEQYNSTYRVVSVLTVLHQDWLNGKEYKCKVSNKALAAPIEKTISKAKGQPREPQVYTLPPSRDELTKNQVSLTCLVKGFYPSDIAVEWESNGQPENNYKTTPPVLDSDGSFFLYSKLTVDKSRWQQGNVFSCSVLHEALHSHYTQKSLSLSPGKGGSDSWMEEVIKLCGRELVRAQIAICGKSTGGEGGGEEGGGEGGQLYSALANKCCHVGCTKRSLARFC | 60.3 nM
SEQ ID NO: 368 (Fc fusion) DKTHTCPPCPAPEAAGGPSVFLFPPKPKDTLMISRTPEVTCVVVDVSHEDPEVKFNWYVDGVEVHNAKTKPREEQYNSTYRVVSVLTVLHQDWLNGKEYKCKVSNKALAAPIEKTISKAKGQPREPQVYTLPPSRDELTKNQVSLTCLVKGFYPSDIAVEWESNGQPENNYKTTPPVLDSDGSFFLYSKLTVDKSRWQQGNVFSCSVLHEALHSHYTQKSLSLSPGGGSDSWQEEVIKLCGRELVRAQIAICGKSTGGEGGGEEGGGEGGQLYSALANKCCHVGCTKRSLARFC | 101 nM
SEQ ID NO: 364 (Fc fusion) DKTHTCPPCPAPEAAGGPSVFLFPPKPKDTLMISRTPEVTCVVVDVSHEDPEVKFNWYVDGVEVHNAKTKPREEQYNSTYRVVSVLTVLHQDWLNGKEYKCKVSNKALAAPIEKTISKAKGQPREPQVYTLPPSRDELTKNQVSLTCLVKGFYPSDIAVEWESNGQPENNYKTTPPVLDSDGSFFLYSKLTVDKSRWQQGNVFSCSVLHEALHSHYTQKSLSLSPGKGGSDSWMEEVIKLCGRELVRAQIAICGKSTGGGEGGGEGGGEGGGQLYSALANKCCHVGCTKRSLARFC | 16 nM
SEQ ID NO: 307 (Fc fusion) DKTHTCPPCPAPEAAGGPSVFLFPPKPKDTLMISRTPEVTCVVVDVSHEDPEVKFNWYVDGVEVHNAKTKPREEQYNSTYRVVSVLTVLHQDWLNGKEYKCKVSNKALAAPIEKTISKAKGQPREPQVYTLPPSRDELTKNQVSLTCLVKGFYPSDIAVEWESNGQPENNYKTTPPVLDSDGSFFLYSKLTVDKSRWQQGNVFSCSVLHEALHSHYTQKSLSLSPGKGGSDSWQEEVIKLCGRELVRAQIAICGKSTGGGEGGGEGGGEGGGQLYSALANKCCHVGCTKRSLARFC | 15.8 nM

The remaining lines, values ahead:

Potency (cAMP, transient hRXFP1 in HEK293) | Binder
2.5 nM | SEQ ID NO: 304 (Fc fusion) DKTHTCPPCPAPEAAGGPSVFLFPPKPKDTLMISRTPEVTCVVVDVSHEDPEVKFNWYVDGVEVHNAKTKPREEQYNSTYRVVSVLTVLHQDWLNGKEYKCKVSNKALAAPIEKTISKAKGQPREPQVYTLPPSRDELTKNQVSLTCLVKGFYPSDIAVEWESNGQPENNYKTTPPVLDSDGSFFLYSKLTVDKSRWQQGNVFSCSVLHEALHSHYTQKSLSLSPGKGGSDSWQEEVIKLCGRELVRAQIAICGKSTGGGEGGGEGGGEGRQLYSALANKCCHVGCTKRSLARFC
2.9 nM | SEQ ID NO: 363 (Fc fusion) DKTHTCPPCPAPEAAGGPSVFLFPPKPKDTLMISRTPEVTCVVVDVSHEDPEVKFNWYVDGVEVHNAKTKPREEQYNSTYRVVSVLTVLHQDWLNGKEYKCKVSNKALAAPIEKTISKAKGQPREPQVYTLPPSRDELTKNQVSLTCLVKGFYPSDIAVEWESNGQPENNYKTTPPVLDSDGSFFLYSKLTVDKSRWQQGNVFSCSVLHEALHSHYTQKSLSLSPGKGGSDSWMEEVIKLCGRELVRAQIAICGKSTGGGEGGGEGGGEGRQLYSALANKCCHVGCTKRSLARFC
3.3 nM | SEQ ID NO: 315 (Fc fusion) DKTHTCPPCPAPEAAGGPSVFLFPPKPKDTLMISRTPEVTCVVVDVSHEDPEVKFNWYVDGVEVHNAKTKPREEQYNSTYRVVSVLTVLHQDWLNGKEYKCKVSNKALAAPIEKTISKAKGQPREPQVYTLPPSRDELTKNQVSLTCLVKGFYPSDIAVEWESNGQPENNYKTTPPVLDSDGSFFLYSKLTVDKSRWQQGNVFSCSVLHEALHSHYTQKSLSLSPGGGSDSWQEEVIKLCGRELVRAQIAICGKSTGGGEGGGEGGGEGRQLYSALANKCCHVGCTKRSLARFC
12.3 nM | SEQ ID NO: 362 (Fc fusion) DKTHTCPPCPAPEAAGGPSVFLFPPKPKDTLMISRTPEVTCVVVDVSHEDPEVKFNWYVDGVEVHNAKTKPREEQYNSTYRVVSVLTVLHQDWLNGKEYKCKVSNKALAAPIEKTISKAKGQPREPQVYTLPPSRDELTKNQVSLTCLVKGFYPSDIAVEWESNGQPENNYKTTPPVLDSDGSFFLYSKLTVDKSRWQQGNVFSCSVLHEALHSHYTQKSLSLSPGKGGSDSWKEEVIKLCGRELVRAQIAICGKSTGGGEGGGEGGGEGGGQLYSALANKCCHVGCTKRSLARFC
